The test system of assay [1] is KLK5-mediated PAR2 activation. Description: PAR2-dependent intracellular calcium mobilization assay in N/TERT keratinocytes. Particulars: peptide 400 μM. The assay is classed as cell-based. The text has this:
PAR2, a member of the G-protein-coupled receptor family expressed in keratinocytes, is a known downstream target of KLK5. KLK5 activates PAR2 by cleaving its extracellular N-terminal domain. This cleavage exposes a tethered ligand, which binds PAR2 intramolecularly to activate the receptor. , Activated PAR2 causes protein kinase C (PKC) and inositol 1,4,5-trisphosphate (IP3) activation, leading to calcium release from the endoplasmic reticulum, known as intracellular calcium mobilization. […] This delay is attributed to the time required for KLK5 to enzymatically cleave the extracellular N-terminal domain of PAR2, thereby exposing the tethered ligand sequence necessary to initiate receptor activation and downstream calcium signaling. […] This observation confirmed PAR2-dependent calcium mobilization and that rKLK5 could initiate PAR2 activation. The inhibition potential of lead 7 on KLK5 activity was then assessed by using this assay. rKLK5 was preincubated with lead 7 at concentrations of 2.5, 5, 20, or 40 μM for one hour before being applied to cultured keratinocytes, after which PAR2-dependent calcium mobilization was measured.
For Ki calculation, Km values for KLK5 and its substrate Boc-VPR-AMC were previously reported in the literature 8, 9, allowing the conversion from IC50 to Ki using the Cheng Prusoff equation10 Kᵢ = IC₅₀ / (1 + [S]/Kₘ) for single-site competitive binding.
Cell lines and tissue cultures
Keratinocytes isolated from the skin in a patient with genetic skin disease Netherton Syndrome (NS19) and in healthy donors (C42, C46, P8) were used in the study. […]
The immortalized keratinocyte cell line (N/TERT)13, 14 were used for the assay. […] The cells were counted, and 100 µL of the suspension, at a density of 600,000 cells/mL, was seeded into each well of a 96 -well microplate. […]
calcium signalling. […] Fluorescence excitation was set at 485 nm, and emission was recorded at 520 nm using SpectraMax® i3x plate reader. […]
For orientation: Calcium flux is commonly read through the fluorescence of an indicator in the cells.

The target of assay [2] is T1, KLK7 (Homo sapiens, UniProt P49862). On the set-up: purchased R&D Systems 2624-SE. Conditions: read-out: Ki against KLK7; cited from earlier work.
Target sequence in this assay (P49862 30-253): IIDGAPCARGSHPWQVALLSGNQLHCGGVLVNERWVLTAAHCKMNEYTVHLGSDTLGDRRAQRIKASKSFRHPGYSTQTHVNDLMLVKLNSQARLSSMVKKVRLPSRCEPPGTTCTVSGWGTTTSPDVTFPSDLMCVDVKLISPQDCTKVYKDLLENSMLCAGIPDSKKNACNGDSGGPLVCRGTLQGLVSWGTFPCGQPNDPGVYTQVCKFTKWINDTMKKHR
The target of a further assay is T2, KLK5 (Homo sapiens, UniProt Q9Y337).
T2 construct: purchased R&D Systems 1108-SE
T2 sequence (Q9Y337 23-293): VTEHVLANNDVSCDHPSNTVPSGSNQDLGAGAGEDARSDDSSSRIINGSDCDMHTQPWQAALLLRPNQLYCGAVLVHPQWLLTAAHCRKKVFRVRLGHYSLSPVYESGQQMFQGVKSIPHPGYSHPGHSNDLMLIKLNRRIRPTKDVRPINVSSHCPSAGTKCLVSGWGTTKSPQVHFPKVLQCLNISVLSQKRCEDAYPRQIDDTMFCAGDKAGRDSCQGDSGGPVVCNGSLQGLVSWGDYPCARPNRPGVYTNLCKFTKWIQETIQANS
Particulars: prior findings, reference not given; read-out: Ki against KLK5; cited from earlier work.

Assay [3] concerns the target T1, KLK7. The assay is described as follows: enzyme inhibition assay (fluorogenic substrate); selectivity: inhibition of KLK7, KLK8 or KLK14 activity by the peptide, n = 3; substrates and conditions in the Supporting Information.
In assay [4] the target is T3, Kallikrein-related peptidase 5 (KLK5) (UniProt Q9Y337 23-293). The assay is described as follows: enzyme inhibition assay (fluorogenic substrate); inhibition of KLK5 activity by the peptide, fluorogenic substrate Boc-VPR-AMC, n = 3; conditions in the Supporting Information. Particulars: both partners purified.
Assay [5] addresses T3, Kallikrein-related peptidase 5 (KLK5). The description is as above. Particulars: both partners purified. This is another data set of the same source.
The next assay concerns the target T4, KLK8 (UniProt O60259 33-260).
T4 construct: Kallikrein 8 (KLK8); construct and source are in the Supporting Information
T4 sequence (looked up): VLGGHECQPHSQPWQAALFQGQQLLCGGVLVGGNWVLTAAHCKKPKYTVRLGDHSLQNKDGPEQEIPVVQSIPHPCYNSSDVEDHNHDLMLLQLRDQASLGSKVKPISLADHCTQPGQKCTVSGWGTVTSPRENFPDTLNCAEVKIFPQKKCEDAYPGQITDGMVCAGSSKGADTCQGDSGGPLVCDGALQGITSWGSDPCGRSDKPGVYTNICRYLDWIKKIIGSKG
The assay is described as follows: enzyme inhibition assay (fluorogenic substrate); selectivity: inhibition of KLK7, KLK8 or KLK14 activity by the peptide, n = 3; substrates and conditions in the Supporting Information. Particulars: both partners purified.

Another assay addresses T5, KLK14 (UniProt Q9P0G3).
T5 sequence (Q9P0G3 41-267, species assumed, looked up): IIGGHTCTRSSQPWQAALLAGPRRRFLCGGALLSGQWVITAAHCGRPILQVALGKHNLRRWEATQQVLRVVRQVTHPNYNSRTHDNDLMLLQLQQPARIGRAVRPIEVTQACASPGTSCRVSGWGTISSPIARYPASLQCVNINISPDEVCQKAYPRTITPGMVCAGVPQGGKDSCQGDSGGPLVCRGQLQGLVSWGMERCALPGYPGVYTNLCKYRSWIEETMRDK
The description is as above.

Bridge positions count the residues as written; N and C are the ends. Ends that are not written are not given here.

As to LRGILS-NH2 [R-AP, reference compound], the “calcium mobilization on stimulation of keratinocytes” value in assay [1] was “did not induce calcium mobilization”.
On to SLIGRL-NH2 [AP, reference compound], for which, in assay [1], the “calcium mobilization on stimulation of keratinocytes” value was “PAR2-dependent calcium mobilization was observed”.
In general, Ki refers to a measure of affinity in units of concentration, obtained from inhibition or displacement. Regarding “α1-antichymotrypsin [reference compound]”, at KLK7 [2], the Ki is 500 nM.

B1: LEKTI Domain 6: domain 6 of the endogenous serine protease inhibitor LEKTI (protein)
chain: ESGKATSYAELCNEYRKLVRNGKLACTRENDPIQGPDGKVHGNTCSMCEVFFQAEEEEKKKKEGESRN
modifications: Kazal-type disulfides
Turning to B1, in the assay with KLK5, the Ki was 83.3 nM.

B2: LEKTI Domain 5: domain 5 of the endogenous serine protease inhibitor LEKTI (protein)
chain: REIVKLCSQYQNQAKNGILFCTRENDPIRGPDGKMHGNLCSMCQAYFQAENEEKKKAEARAR
modifications: Kazal-type disulfides
Regarding B2, the Ki in the assay with KLK5 was 32.8 nM.

B3: SFTI analogue 8 (peptide)
peptide: cyclo(GFCHRSYPPECWPN)
modifications: disulfide 3-11 (inferred)
notes: SFTI scaffold grafted with residues of a LEKTI or LEKTI-like domain, glutamic acid at position 10; also called compound 8; source: synthetic peptide (hydrazide peptide, cyclised via native chemical ligation, oxidised, RP-HPLC purified)
What is called IC50 is the concentration that gives 50% inhibition. A lower IC50 goes with greater potency. B3: the IC50 with KLK7 [3] is more than 1000 nM; in assay [5] it was 8.6 ± 2 nM; in the assay with KLK8 it was more than 1000 nM. For the same molecule, the affinity in assay [4] corresponds to a Ki of 8 nM.

B4: LEKTI-grafted SFTI analogue, lead 7 (peptide)
peptide: cyclo(GFCTRSNPPECWPN)
modifications: disulfide 3-11 (inferred)
notes: SFTI scaffold grafted with residues of a LEKTI domain, glutamic acid at position 10; source: synthetic peptide (hydrazide peptide, cyclised via native chemical ligation, oxidised, RP-HPLC purified)
Consider B4, for which the IC50 in the assay with KLK14 was more than 1000 nM; with KLK7 [3] it was more than 1000 nM; in assay [5] it was 14 ± 4 nM; with KLK8 it was more than 1000 nM. The Ki in assay [4] amounted to 11 nM.

(Values after PMC12670400, “LEKTI-Grafted Sunflower Trypsin Inhibitor: A Potential Therapeutic for Skin Diseases” (Journal of Medicinal Chemistry, 2025).)
